In patent US20080045445A1:

Target: centromere-binding factor 1 (CBF1) (human) (UniProt Q06330)
Experiment: cell-based or functional assay

Chain of centromere-binding factor 1 (CBF1) (human) (Q06330 whole entry): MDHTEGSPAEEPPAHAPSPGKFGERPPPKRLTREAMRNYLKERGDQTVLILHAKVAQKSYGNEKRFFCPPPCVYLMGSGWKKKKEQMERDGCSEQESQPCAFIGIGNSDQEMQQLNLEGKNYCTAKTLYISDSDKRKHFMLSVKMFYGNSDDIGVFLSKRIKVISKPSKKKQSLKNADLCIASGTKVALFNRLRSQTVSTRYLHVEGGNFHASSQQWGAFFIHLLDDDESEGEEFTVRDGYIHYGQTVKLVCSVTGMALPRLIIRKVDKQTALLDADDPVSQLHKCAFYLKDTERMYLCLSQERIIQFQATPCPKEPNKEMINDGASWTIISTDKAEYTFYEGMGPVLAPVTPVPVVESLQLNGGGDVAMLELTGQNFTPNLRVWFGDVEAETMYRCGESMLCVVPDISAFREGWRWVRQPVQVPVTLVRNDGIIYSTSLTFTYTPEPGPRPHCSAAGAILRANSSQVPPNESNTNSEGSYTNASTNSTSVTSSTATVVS

Substance: Notch1 intracellular domain (NICD) (from UniProt P46531 1754-2555) (receptor)
- luciferase activity (CBF1 binding site reporter, wild-type/mutant, relative to beta-galactosidase): 5 fold
